In patent CN112063765A (BEIJING XINSONG BIOLOGICAL TECH CO LTD, dated 2020):

Tests used:
Test in all cases: cell-based or functional assay
[1] = molecular target: A/swine/Jalisco/12-13/2012(H1N1) (Influenza A virus …)
[2] = molecular target: Solomon Islands/3/2006(H1N1) (Influenza A virus Solomon …)
[3] = molecular target: New Caledonia/20/99(H1N1) (Influenza A virus New Caledonia/20/99 …)

B1: 3E6单克隆抗体 (antibody, V domains shown)
VH: EVQLEESGTELARPGASVKLALKASGYIFSSYSGQWIKQRPGAGLELIGYPYPGWIDTRYTQKLTGKATLTADKSSSTLYMQLSSLASEDSAVAYCAGSYFSSDAWGLGTTLAVSS
VL: DIVLTQSPALMAASAGEKVTITCAVSQSIQSGYLAWYQQKSGISPKPWIYDTSNQAGGVPARFSGAGSGTSYSLTITSMEAEDAATYYCAQGTTSPLSFGAGTKLELK
[1]
  中和活性 (Lenti-pseudovirus, 293A细胞, β-gal; 抗体浓度 0.01μg/mL): 0.974
[2]
  中和活性 (Lenti-pseudovirus, 293A细胞, β-gal; 抗体浓度 0.01μg/mL): 0.843
[3]
  中和活性 (Lenti-pseudovirus, 293A细胞, β-gal; 抗体浓度 0.01μg/mL): 0.865
